# Results as given in patent US20080108793.
# Tested on: crotonyl-ACP
substance,measurement,value
N-terminal His-tagged F. tularensis FabI,Km (crotonyl-ACP),4.4 µM
